Results on 5 molecules are retold here after paper PMC11234457, “Antitumor Effect of Anti‐c‐Myc Aptamer‐Based PROTAC for Degradation of the c‐Myc Protein”.

For data set [1], the target named is T1, c-Myc (Homo sapiens, UniProt P01106 16-454). In words: ELISA; 200 nM aptamer, 100 ng c-Myc/well; ELISA: c-Myc coated on microplate (100 mM NaHCO3 pH 9.6, 4 C overnight), 2% BSA in PBST block, binding buffer (composition not in material), RT 30 min. As to conditions: protein: commercial; tags: none (untagged); label: 5' biotin (ELISA, pull-down); FAM (flow).

In data set [2] the target is T1, c-Myc. Put plainly: ELISA; ELISA: c-Myc coated on microplate (100 mM NaHCO3 pH 9.6, 4 C overnight), 2% BSA in PBST block, binding buffer (composition not in material), RT 30 min. As to conditions: protein: commercial; tags: none (untagged).
The target of data set [3] is T1, c-Myc. In words: competition ELISA; 200 nM ProMyc, 50 ng c-Myc; ELISA: c-Myc coated on microplate (100 mM NaHCO3 pH 9.6, 4 C overnight), 2% BSA in PBST block, binding buffer (composition not in material), RT 30 min. As to conditions: protein: commercial; tags: none (untagged); cloverleaf (predicted).
In data set [4] the target is T1, c-Myc. In words: competition ELISA; affinity consistent with ProMyc; ELISA: c-Myc coated on microplate (100 mM NaHCO3 pH 9.6, 4 C overnight), 2% BSA in PBST block, binding buffer (composition not in material), RT 30 min. As to conditions: protein: commercial; tags: none (untagged); cloverleaf (predicted).
In data set [5] the target is T1, c-Myc. In words: ELISA; comparable to MA9; ELISA: c-Myc coated on microplate (100 mM NaHCO3 pH 9.6, 4 C overnight), 2% BSA in PBST block, binding buffer (composition not in material), RT 30 min. As to conditions: protein: commercial; tags: none (untagged); label: 5' biotin; FAM; cy3; cloverleaf (predicted).

Where a chain is given by its changes, count along the chain named.

T1 sequence (P01106 16-454): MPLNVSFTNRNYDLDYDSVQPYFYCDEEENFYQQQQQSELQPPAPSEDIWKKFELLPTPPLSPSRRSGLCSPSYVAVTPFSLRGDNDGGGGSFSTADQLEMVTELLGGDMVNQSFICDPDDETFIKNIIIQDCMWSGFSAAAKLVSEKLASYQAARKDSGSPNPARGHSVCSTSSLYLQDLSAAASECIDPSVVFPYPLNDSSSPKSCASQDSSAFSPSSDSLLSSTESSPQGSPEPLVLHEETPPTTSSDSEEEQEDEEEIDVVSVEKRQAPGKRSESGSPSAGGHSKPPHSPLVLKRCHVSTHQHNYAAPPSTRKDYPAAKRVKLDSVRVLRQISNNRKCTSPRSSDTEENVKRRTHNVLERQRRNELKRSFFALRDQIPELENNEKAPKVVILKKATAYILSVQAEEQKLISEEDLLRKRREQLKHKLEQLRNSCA

B1: MA9 (ssDNA)
DNA: CGTTACTTCTGTTCGTTCTCATGGCGAACCCTGTATGGCGCGTAAGTCGGGGAGTAACGTCTGCCTAGTTCCTTGTCTGATCTCCA
For the molecule B1, the binding result with c-Myc [1] is “binds”.

B2: MA9C1-mut (structured_DNA)
DNA: CGTTAATTCTGTTCGTTCTCATGGCGAACCCTGTATGACACGTTTGACGGGGAGTAACG
In the case of B2, in the data set with c-Myc [2], the binding result is reported as “no binding”.

B3: ProMyc (structured_DNA)
DNA: B2 DNA with A6C, A38G, A40G, T44A, T45A, A47T
modifications: 5' NH2-C6 linked to pomalidomide-PEG4
As to B3, in the data set with c-Myc [3], the binding result is “binds”.

B4: ProMyc-VHL (structured_DNA)
DNA: B2 DNA with A6C, A38G, A40G, T44A, T45A, A47T
modifications: 5' NH2-C6 linked to (S,R,S)-AHPC-PEG5
As to B4, the binding result with c-Myc [4] is on record as “binds”.

B5: MA9C1 (structured_DNA)
DNA: B2 DNA with A6C, A38G, A40G, T44A, T45A, A47T
As for B5, the binding result in the data set with c-Myc [5] is “binds”.
